Experimental data published in publication PMC8571082 (2021).

How the values were obtained:
[1] = target: T1, factor inhibiting HIF-1 (FIH-1), full-length (human, UniProt Q9NWT6 1-349); test: ITC; +αKG, +EDTA
[2] = target: T1, factor inhibiting HIF-1 (FIH-1), …; test: ITC; +αKG, -EDTA
[3] = target: T1, factor inhibiting HIF-1 (FIH-1), …; test: ITC; -αKG, +EDTA
[4] = target: T1, factor inhibiting HIF-1 (FIH-1), …; test: ITC; -αKG, -EDTA

T1 sequence (Q9NWT6 whole entry): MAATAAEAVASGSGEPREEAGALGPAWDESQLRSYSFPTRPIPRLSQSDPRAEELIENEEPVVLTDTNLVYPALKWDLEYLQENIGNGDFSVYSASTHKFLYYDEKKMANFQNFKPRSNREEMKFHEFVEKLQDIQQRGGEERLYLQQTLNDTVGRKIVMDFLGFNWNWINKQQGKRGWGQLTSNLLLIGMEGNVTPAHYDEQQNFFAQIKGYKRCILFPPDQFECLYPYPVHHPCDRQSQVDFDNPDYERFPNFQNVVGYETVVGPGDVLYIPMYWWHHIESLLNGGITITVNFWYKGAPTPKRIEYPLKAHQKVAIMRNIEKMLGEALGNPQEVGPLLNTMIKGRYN

B1: Mint3NT, N-terminal fragment (1–214) of Mint3 (domain or fragment)
chain: MDFPTISRSPSGPPAMDLEGPRDILVPSEDLTPDSQWDPMPGGPGSLSRMELDESSLQELVQQFEALPGDLVGPSPGGAPCPLHIATGHGLASQEIADAHGLLSAEAGRDDLLGLLHCEECPPSQTGPEEPLEPAPRLLQPPEDPDEDSDSPEWVEGASAEQEGSRSSSSSPEPWLETVPLVTPEEPPAGAQSPETLASYPAPQEVPGPCDHED
Kd [1]: 2.2 µM
Kd [2]: 1 µM
Kd [3]: 8.1 µM
Kd [4]: 3.4 µM
